Experimental data reported in US20040005550A1, “Methods and compositions useful for targeting activated vitronectin receptor alphavbeta3” (The Scripps Research Institute, priority 1998, published 2004).

Target: T1, αvβ3 expressed in CHO cells (Homo sapiens, UniProt P05106+P06756)
T1 construct: cDNAs encoding full-length human αv and β3 were subcloned into pcDNA3 and pCDM8; expressed in transfected cells
Assay: Flow cytometry ligand binding to αvβ3-CHO cells
Conditions: in presence of antibody AP5; 2 mM RGDS, 50 μM cRGDfV, 1 μM Integrilin, 100 μg/ml LM609
Protocol: Binding of aPB, WOW-1 Fab and FITC-fibrinogen to cells was assessed by flow cytometry. Typically, cells were cultured overnight in low serum medium (e.g., 0.5% fetal bovine serum), resuspended in incubation buffer at 1-1.5×10^7 cells/ml, and 4-6×10^5 cells were incubated with one of these ligands for 30 min at room temperature in a final volume of 50 μl. […] In some experiments, ligand binding and αvβ3 expression were measured simultaneously by incubation of cells with ligands in the presence of biotin-SSA6 (7 μg/ml), a non-function-blocking anti-β3 monoclonal antibody (Abrams, C., Deng, J., Steiner, B., and Shattil, S. J. (1994) J. Biol. Chem. 269, 18781-18788). After 30 min at room temperature, cells were washed and incubated with phycoerythrin-streptavidin (1:25 final dilution; Molecular Probes) for 20 min on ice. In the case of WOW-1 Fab, an Alexa-conjugated anti-(His)6 monoclonal antibody (Accurate Chemical and Scientific Corp., Westbury, N.Y.) was added at this stage (50 μg/ml). Cells were washed and resuspended in 0.5 ml incubation buffer containing 2 μg/ml propidium iodide (Sigma, St. Louis, Mo.). Ligand binding (FL1 channel) was analyzed immediately on the gated subset of live cells (propidium iodide-negative, FL3) that was strongly positive for αvβ3 expression (FL2). […]

T1 sequence (P06756 31-889 limits assumed): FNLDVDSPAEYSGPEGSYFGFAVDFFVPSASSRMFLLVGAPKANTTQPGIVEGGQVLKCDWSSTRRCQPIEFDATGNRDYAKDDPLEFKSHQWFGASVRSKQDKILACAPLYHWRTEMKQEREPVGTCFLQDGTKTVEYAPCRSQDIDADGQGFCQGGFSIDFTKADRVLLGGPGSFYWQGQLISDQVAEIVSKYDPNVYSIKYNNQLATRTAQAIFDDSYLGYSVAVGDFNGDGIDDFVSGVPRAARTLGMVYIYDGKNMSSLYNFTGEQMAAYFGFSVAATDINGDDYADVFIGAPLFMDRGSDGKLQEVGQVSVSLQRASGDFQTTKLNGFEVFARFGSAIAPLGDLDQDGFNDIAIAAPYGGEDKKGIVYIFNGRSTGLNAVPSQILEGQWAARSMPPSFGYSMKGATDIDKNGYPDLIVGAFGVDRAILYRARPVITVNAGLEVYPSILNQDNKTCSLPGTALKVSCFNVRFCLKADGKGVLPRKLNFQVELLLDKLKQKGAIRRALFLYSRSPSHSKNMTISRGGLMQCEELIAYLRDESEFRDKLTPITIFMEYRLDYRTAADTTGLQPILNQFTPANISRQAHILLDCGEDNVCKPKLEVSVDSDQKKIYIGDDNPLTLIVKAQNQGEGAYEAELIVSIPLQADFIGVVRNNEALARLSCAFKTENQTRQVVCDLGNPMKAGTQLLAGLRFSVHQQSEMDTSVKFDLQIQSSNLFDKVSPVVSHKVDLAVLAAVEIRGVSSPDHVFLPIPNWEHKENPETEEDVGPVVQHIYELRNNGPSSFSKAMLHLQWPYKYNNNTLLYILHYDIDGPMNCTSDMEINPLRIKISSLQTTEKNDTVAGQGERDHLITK
T1 sequence (P06756 891-1048 partner limits assumed): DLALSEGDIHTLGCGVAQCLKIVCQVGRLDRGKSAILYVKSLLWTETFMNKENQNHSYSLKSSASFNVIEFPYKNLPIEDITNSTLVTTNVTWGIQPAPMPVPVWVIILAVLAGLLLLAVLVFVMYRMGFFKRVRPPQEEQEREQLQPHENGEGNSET
T1 sequence (P05106 27-788): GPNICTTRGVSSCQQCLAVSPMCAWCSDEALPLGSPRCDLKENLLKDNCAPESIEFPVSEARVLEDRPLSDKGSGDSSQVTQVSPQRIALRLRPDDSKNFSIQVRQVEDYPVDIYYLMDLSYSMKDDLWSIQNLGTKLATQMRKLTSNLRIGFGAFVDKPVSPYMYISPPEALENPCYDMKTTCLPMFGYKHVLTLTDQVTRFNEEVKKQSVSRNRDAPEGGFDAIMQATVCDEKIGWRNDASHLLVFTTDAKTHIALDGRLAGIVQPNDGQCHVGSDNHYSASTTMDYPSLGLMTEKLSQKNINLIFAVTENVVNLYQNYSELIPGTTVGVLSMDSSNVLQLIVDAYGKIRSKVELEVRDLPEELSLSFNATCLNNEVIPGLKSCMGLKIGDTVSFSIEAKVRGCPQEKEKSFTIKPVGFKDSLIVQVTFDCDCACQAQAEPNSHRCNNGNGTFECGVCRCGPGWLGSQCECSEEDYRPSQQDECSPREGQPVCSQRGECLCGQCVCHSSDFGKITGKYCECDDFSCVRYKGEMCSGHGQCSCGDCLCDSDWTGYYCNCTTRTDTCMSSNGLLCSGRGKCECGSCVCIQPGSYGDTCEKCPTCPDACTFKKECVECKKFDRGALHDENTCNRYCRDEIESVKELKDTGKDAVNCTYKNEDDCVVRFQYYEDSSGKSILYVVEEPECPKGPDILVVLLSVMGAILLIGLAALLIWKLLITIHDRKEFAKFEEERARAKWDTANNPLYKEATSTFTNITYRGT

B1: LM609: αvβ3-specific function-blocking monoclonal antibody (antibody, V domains shown)
VH: EVQLEESGGGLVKPGGSLKLSCAASGFAFSSYDMSWVRQIPEKRLEWVAKVSSGGGSTYYLDTVQGRFTISRDNAKNTLYLQMSSLNSEDTAMYYCARHNYGSFAYWGQGTLVTVSA
VL: ELVMTQTPATLSVTPGDSVSLSCRASQSISNHLHWYQQKSHESPRLLIKYASQSISGIPSRFSGSGSGTDFTLSINSVETEDFGMYFCQQSNSWPHTFGGGTKLEIKRA
  inhibition of aPB and WOW-1 Fab binding: more than 70%
